The source of these data is patent US20250051458A1, “Methods for Treating Neurodegeneration Targeting IGF1/IGF1R” (The Schepens Eye Research Institute, Inc., priority 2021, published 2025).

Data set [1] concerns BV2 microglia. Description: Western blot of PI3K phosphorylation in BV2 microglia. It is filed as cell-based, mouse. The protocol:
For WB, mouse BV2 cell line was used in this study. It was purchased from ATCC (CRL-2469), and was cultured in DMEM (Thermo Fisher Scientific, Cat. No. 11885084) supplemented with 10% FBS at 37° C. with 5% C02. The medium was changed every 3 days. Cells were then seeded onto 6-well plates and stimulated with LPS (Sigma, Cat #L6529-1MG) for 6 hours and followed by IGFBPL1 (400 ng/ml, R&D system, 4130-BL) and/or IGF1 analog (10 uM, BACHEM, H-1356, Cat. No. 4018631) or NBI-31772 (10 μM, EMD Millipore, Cat. No. 479830). Cells were harvested 48 hrs for following western blotting.
WB was performed as previously noted^29. Cell or tissue samples were sonicated in a cold RIPA buffer supplemented with a 1:100 FAST protease inhibitor (S8830, Sigma-Aldrich, St Louis, MO, USA). […] The total Protein concentration of resulting supernatants was determined using the Qubit 4 Fluorometer (Thermo Fisher Scientific, Waltham, MA, USA). […] Signals were developed with ECL using a Super Signal West Pico kit (Thermo Fisher Scientific, Waltham, MA, USA) and detected with iBright CL 1500 (Thermo Fisher Scientific, Waltham, MA, USA). […] All the quantification results were averaged from three protein blots and expressed as the mean ratio of the values (target protein/housekeeping protein)±standard deviation (SD). […]
On the technique in general: Immunoblotting shows a protein as a band on a membrane.

The test system of data set [2] is retinal microglia. Description: Proteome profiler mouse cytokine array on supernatants of LPS-treated retinal microglial cultures. It is filed as cell-based. Conditions: IGFBPL1 400 ng/ml added 6 hr after LPS 1 μg/ml; total 48 hours. The protocol:
Retinal microglia isolation started from dissecting retinas out from CX3CR1/GFP mice. The single cell suspension was obtained followed by papain digestion (20 units; Worthington, Lk003150). Tap every 3-5 mins until completely digested and then add equal volume of inhibitor to neutralize the reaction. Then the supernatants were removed by centrifuge at 300 g for 8 mins. Resuspend retinal cell pellets from CX3CR1/GFP mice into cell staining buffer (BioLegend, 420201) with pacific blue anti-mouse CD11b primary antibody (Biolegend, 101224). […]
As described above, microglial cells were sorted from CX3CR1/GFP mice as described above. […] The array membranes were imaged with iBright CL1500 imaging system (ThermoFisher Scientific, USA) and the results were analyzed using ImageJ software.
To investigate if IGFBPL1 directly mediates microglial function, we studied gene profiling changes in isolated microglial cultures treated by IGFBPL1. Retinal microglia were purified from mice expressing green fluorescence protein (GFP) driven under a microglial specific promoter Cx3cr1 (Cx3cr1-Gfp) using fluorescence-activated cell sorting (FACS)^12. […] This effects of IGFBPL1 on suppressing microglial activation were verified by cytokine arrays, which measured 36 mouse pro-inflammatory cytokines, chemokines from supernatants of microglial cultures. […]

For data set [3], the system named is retinal microglia. The data set is described as follows: Bulk RNA-seq gene profiling of isolated retinal microglial cultures, with or without LPS. It counts as cell-based, mouse. As for the experimental part:
We performed RNA-seq using four Igfbpl1−/− mice retina and four WT mice retina. The raw data was quality controlled and aligned on Mus musculus (mouse) reference genome (GRCm38) with STAR v2.5.0a (PMID: 23104886), FeatureCount (v0.6.1) (PMID: 24227677) was used to count the number of read mapped to each gene. Transcripts Per Million (TPM) was calculated for each gene based on the length of the gene and reads mapped to that gene. Differential expression analysis between Igfbpl1^−/− and WT mice was performed using the DESeq2 R package (v1.22.2) (PMID: 25516281). gene set over representation analysis for the differentially expressed genes was performed with the same above described method. We also downloaded lists of genes with function related to “Microglia”, “Astroglia”, “neuron”, and “photoreceptor” from genecard (www.genecards.org) with relevance score>5, and determined the percentage of and calculated the proportion of differentially expressed genes in each of those gene lists. […]
To investigate if IGFBPL1 directly mediates microglial function, we studied gene profiling changes in isolated microglial cultures treated by IGFBPL1. Retinal microglia were purified from mice expressing green fluorescence protein (GFP) driven under a microglial specific promoter Cx3cr1 (Cx3cr1-Gfp) using fluorescence-activated cell sorting (FACS)^12. […]

B1: IGFBPL1: insulin-like growth factor binding protein like protein 1; recombinant protein (R&D system, 4130-BL) (protein)
chain: LGLRDAGRRHPECSPCQQDRCPAPSPCPAPWISARDECGCCARCLGAEGASCGGPVGSRCGPGLVCASRASGTAPEGTGLCVCAQRGAVCGSDGRSYSSICALRLRARHAPRAHHGHLHKARDGPCEFAPVVLMPPRDIHNVTGTQVFLSCEVKAVPTPVITWKKVKHSPEGTEGLEELPGDHVNIAVQVRGGPSDHETTSWILINPLRKEDEGVYHCHAANAIGEAQSHGTVTVLDLNRYKSLYSSVPGDLL
For B1, the “Increase in PI3K phosphorylation” value in data set [1] (IGFBPL1 added 6 hr after LPS challenge) turned out to be 8 fold. The “PI3K signaling, individual treatment” value in data set [1] (IGFBPL1 alone, no LPS) was “did not alter PI3K signaling”. The “Reversal of LPS-induced inflammatory cytokines (cytokine array, 36 cytokines/chemokines)” value in data set [2] is “completely reverted the LPS-induced inflammatory cytokines to the control levels”. Moreover, the “Reversal of LPS-induced microglial gene profile (bulk RNA-seq)” value in data set [3] (IGFBPL1 added 6 hr after LPS stimulation) is “completely reverted LPS-induced microglial gene profile to the control level”. Moreover, in data set [3] (IGFBPL1 alone, no LPS), the “Microglial gene profile versus vehicle controls (bulk RNA-seq)” value was “no different between cultures treated with IGFBPL1 alone and vehicle controls”.
